Source: patent US20150274841A1 (DYAX, published 2015)

Molecular target: T1, human plasma kallikrein (PKal) (human, UniProt P03952 20-638)
T1 construct: Active PKal is cleaved at the marked R/I site into two disulfide-linked chains; also called human Pkal; active PKal
Assay: Ki,app; Fab inhibition of PKal cleavage of a substrate peptide, Morrison fit
Experimental: Briefly, PKal and a Fab at various concentrations are incubated together for 1 hour at 30° C. A substrate peptide (cleavable by PKal) is then added to this PKal-Fab mixture. The rate of substrate peptide cleavage/proteolysis is then measured, and plotted against the concentrations of the Fab. This plot is then fit to the Morrison equation, which calculates the K_{i,app} value. The results thus obtained are shown in FIGS. 5A-5D and Table 3 below: […]

T1 sequence (P03952 20-638 limits assumed): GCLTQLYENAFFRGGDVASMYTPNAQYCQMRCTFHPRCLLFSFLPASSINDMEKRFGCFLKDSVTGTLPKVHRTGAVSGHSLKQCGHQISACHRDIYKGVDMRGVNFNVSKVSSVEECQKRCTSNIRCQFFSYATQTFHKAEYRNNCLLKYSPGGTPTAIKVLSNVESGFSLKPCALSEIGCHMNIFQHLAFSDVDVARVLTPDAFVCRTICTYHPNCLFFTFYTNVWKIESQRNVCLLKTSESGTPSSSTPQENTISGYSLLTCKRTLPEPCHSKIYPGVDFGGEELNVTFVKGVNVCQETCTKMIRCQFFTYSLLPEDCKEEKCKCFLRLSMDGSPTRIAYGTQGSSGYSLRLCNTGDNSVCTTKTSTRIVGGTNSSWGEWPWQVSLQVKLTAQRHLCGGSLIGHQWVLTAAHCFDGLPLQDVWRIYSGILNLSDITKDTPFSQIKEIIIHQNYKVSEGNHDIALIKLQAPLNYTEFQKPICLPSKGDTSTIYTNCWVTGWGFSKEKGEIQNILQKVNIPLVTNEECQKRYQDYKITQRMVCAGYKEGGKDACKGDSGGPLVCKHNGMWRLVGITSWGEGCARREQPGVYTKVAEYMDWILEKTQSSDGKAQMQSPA

| Binder | Ki |
| --- | --- |
| M0202-D09 (Fab, V domains shown) VH: EVQLLESGGGLVQPGGSLRLSCAASGFTFSHYIMMWVRQAPGKGLEWVSGIYSSGGITVYADSVKGRFTISRDNSKNTLYLQMNSLRAEDTAVYYCAYRRIGVPRRDSFDIWGQGTMVTVSS VL: DIQMTQSPSTLSASVGDRVTITCRASQSISSWLAWYQQKPGKAPNLLIYKASTLESGVPSRFSGSGSGTEFTLTISSLQPDDFATYYCQQYNTYWTFGQGTKVEIK | 0.2 nM |
| M0200-D03 (Fab, V domains shown) VH: EVQLLESGGGLVQPGGSLRLSCAASGFTFSHYIMMWVRQAPGKGLEWVSGIYSSGGITVYADSVKGRFTISRDNSKNTLYLQMNSLRAEDTAVYYCAYRRIGVPRRDSFDMWGQGTMVTVSS VL: DIQMTQSPSTLSASVGDRVTITCRASQSISSWLAWYQQKPGKAPNLLIYKASTLESGVPSRFSGSGSGTEFTLTISSLQPDDFATYYCQQYNTYWTFGQGTKVEIK | 0.1 nM |
| M0202-009 (Fab, V domains shown) VH: EVQLLESGGGLVQPGGSLRLSCAASGFTFSHYIMMWVRQAPGKGLEWVSGIYSSGGITVYADSVKGRFTISRDNSKNTLYLQMNSLRAEDTAVYYCAYRRIGVPRRDDFDIWGQGTMVTVSS VL: DIQMTQSPSTLSASVGDRVTITCRASQSISSWLAWYQQKPGKAPNLLIYKASTLESGVPSRFSGSGSGTEFTLTISSLQPDDFATYYCQQYNTYWTFGQGTKVEIK | 0.06 nM |
| M0199-All (Fab, V domains shown) VH: EVQLLESGGGLVQPGGSLRLSCAASGFTFSHYIMMWVRQAPGKGLEWVSGIYSSGGITVYADSVKGRFTISRDNSKNTLYLQMNSLRAEDTAVYYCAYRRRGIPRRDAFDIWGQGTMVTVSS VL: DIQMTQSPSTLSASVGDRVTITCRASQSISSWLAWYQQKPGKAPNLLIYKASTLESGVPSRFSGSGSGTEFTLTISSLQPDDFATYYCQQYNTYWTFGQGTKVEIK | 2 nM |
| X135-A01 (Fab, V domains shown) VH: EVQLLESGGGLVQPGGSLRLSCAASGFTFSHYIMMWVRQAPGKGLEWVSGIYSSGGITVYADSVKGRFTISRDNSKNTLYLQMNSLRAEDTAVYYCAYRRTGAPRRDAFDIWGQGTMVTVSS VL: DIQMTQSPSTLSASVGDRVTITCRASQSISSWLAWYQQKPGKAPNLLIYKASTLESGVPSRFSGSGSGTEFTLTISSLQPDDFATYYCQQYNTYWTFGQGTKVEIK | 248 nM |
| M0201-F11 (Fab, V domains shown) VH: EVQLLESGGGLVQPGGSLRLSCAASGFTFSHYIMMWVRQAPGKGLEWVSGIYSSGGITVYADSVKGRFTISRDNSKNTLYLQMNSLRAEDTAVYYCAYRRSGIPRRDAFDIWGQGTMVTVSS VL: DIQMTQSPSTLSASVGDRVTITCRASQSISSWLAWYQQKPGKAPNLLIYKASTLESGVPSRFSGSGSGTEFTLTISSLQPDDFATYYCQQYNTYWTFGQGTKVEIK | 3 nM |
| M0202-A08 (Fab, V domains shown) VH: EVQLLESGGGLVQPGGSLRLSCAASGFTFSHYIMMWVRQAPGKGLEWVSGIYSSGGITVYADSVKGRFTISRDNSKNTLYLQMNSLRAEDTAVYYCAYRRTGIPRWDAFDIWGQGTMVTVSS VL: DIQMTQSPSTLSASVGDRVTITCRASQSISSWLAWYQQKPGKAPNLLIYKASTLESGVPSRFSGSGSGTEFTLTISSLQPDDFATYYCQQYNTYWTFGQGTKVEIK | 2.8 nM |
| M0202-E03 (Fab, V domains shown) VH: EVQLLESGGGLVQPGGSLRLSCAASGFTFSHYIMMWVRQAPGKGLEWVSGIYSSGGITVYADSVKGRFTISRDNSKNTLYLQMNSLRAEDTAVYYCAYRRTGIPRRDAFEIWGQGTMVTVSS VL: DIQMTQSPSTLSASVGDRVTITCRASQSISSWLAWYQQKPGKAPNLLIYKASTLESGVPSRFSGSGSGTEFTLTISSLQPDDFATYYCQQYNTYWTFGQGTKVEIK | 2 nM |
| M0199-B01 (Fab, V domains shown) VH: EVQLLESGGGLVQPGGSLRLSCAASGFTFSHYIMMWVRQAPGKGLEWVSGIYSSGGITVYADSVKGRFTISRDNSKNTLYLQMNSLRAEDTAVYYCAYRRTGIPRRDAFDNWGQGTMVTVSS VL: DIQMTQSPSTLSASVGDRVTITCRASQSISSWLAWYQQKPGKAPNLLIYKASTLESGVPSRFSGSGSGTEFTLTISSLQPDDFATYYCQQYNTYWTFGQGTKVEIK | 1.6 nM |
